Measurements reported in patent publication US10039841B2, “Gene therapy vector system and prodrug genes” (The Industry & Academic Cooperation in Chungnam National …, priority 2016, dated 2018).

System: U-87MG cells
Assay: Investigation of drug sensitivity against GCV and 5-FC (cell death of serially infected cells)
Assay type: cell-based
Procedure: The drug sensitivity against ganciclovir (GCV) and 5-fluorocytosine (5-FC) of the virus spRRVe-P1-yCD/sRRVgp-P1-TK produced in Example <3-1> was investigated.
Overall, 293T cells were co-transfected with spRRVe-P1-yCD/sRRVgp-P1-TK by using PLUS reagent (Invitrogen) and lipofectamine (Invitrogen). 2 days later, the supernatant was obtained. The U-87MG cells sub-cultured on the previous day in a 6-well plate at the density of 1.5×10^3 cells/well were added with 8 μl/ml of polybrene, followed by infection with the virus for 8 hours. 5 days after the infection (post-infection 5 d), the supernatant was obtained. The U-87MG cells sub-cultured on the previous day in a 6-well plate at the density of 1.5×10^3 cells/well were infected with the supernatant (p1). The infection was continued serially until p4 phase. The cells of each phase were treated with trypsin-EDTA to prepare single cells. The prepared single cells were distributed in a 12-well plate at the density of 1.5×10^3 cells/well. From the next day of the sub-culture, the cells were treated with […] of GCV and 1 mM 5-FC for 5 days or 8 days, followed by investigation of cell death.
The drug sensitivity of the virus produced in Example <6-2> against GCV and 5-FC was investigated by the same manner as described in Example <3-5> except that the virus produced in Example <6-2> was co-transfected.
(§1) The drug sensitivity of the virus produced in Example <7-2> against GCV and 5-FC was investigated by the same manner as described in Example <3-5> except that the virus produced in Example <7-2> was co-transfected to infect stepwise from p1 to p9 and cell death was observed after treating GCV and 5-FC for 9 or 12 days, respectively.
as §1, with “<8-2>” for “<7-2>”, “p11” for “p9”, “5” for “9”, “7 days.” for “12 days, respectively.”
as §1, with “<10-2>” for “<7-2>”, “p5” for “p9”, “6” for “9”, “8” for “12”
as §1, with “Example <11-2>” for “Example <7-2>”, “for 8” for “for 9”, “days, respetively.” for “days, respectively.”

[1] = Example 8-3, combined with sRRVgp-P2-TK, p1 to p11, treated 5 or 7 days

B1: CD8: yeast CD gene optimized by human codon (SEQ. ID. NO: 23) (nucleic acid)
DNA: ATGGTTACTGGGGGAATGGCATCTAAGTGGGATCAGAAAGGTATGGACATCGCTTATGAAGAGGCTGCTCTCGGCTACAAAGAGGGTGGAGTGCCTATCGGAGGGTGCCTGATCAACAACAAGGACGGCAGTGTGCTGGGGAGGGGCCACAATATGAGGTTCCAAAAAGGCTCCGCCACTCTCCACGGGGAAATTAGTACCCTCGAGAATTGCGGACGATTGGAAGGGAAGGTGTACAAGGATACAACACTGTACACCACCCTGTCACCCTGTGATATGTGCACAGGCGCCATTATCATGTACGGAATCCCTAGATGTGTCGTGGGGGAGAATGTAAACTTCAAAAGTAAGGGGGAGAAATATCTCCAGACCCGGGGGCACGAAGTCGTCGTTGTGGACGATGAACGGTGTAAGAAGATCATGAAGCAGTTTATCGATGAGAGGCCCCAGGACTGGTTCGAAGACATCGGGGAATAA
modifications: CD8 gene
drug sensitivity against 5-FC [1]: excellent drug sensitivity, compared to yCD gene

B2: yCD: yeast cytosine deaminase gene (SEQ. ID. NO: 16) (nucleic acid, listed as Saccharomyces cerevisiae)
DNA: ATGGTGACAGGGGGAATGGCAAGCAAGTGGGATCAGAAGGGTATGGACATTGCCTATGAGGAGGCGGCCTTAGGTTACAAAGAGGGTGGTGTTCCTATTGGCGGATGTCTTATCAATAACAAAGACGGAAGTGTTCTCGGTCGTGGTCACAACATGAGATTTCAAAAGGGATCCGCCACACTACATGGTGAGATCTCCACTTTGGAAAACTGTGGGAGATTAGAGGGCAAAGTGTACAAAGATACCACTTTGTATACGACGCTGTCTCCATGCGACATGTGTACAGGTGCCATCATCATGTATGGTATTCCACGCTGTGTTGTCGGTGAGAACGTTAATTTCAAAAGTAAGGGCGAGAAATATTTACAAACTAGAGGTCACGAGGTTGTTGTTGTTGACGATGAGA
drug sensitivity against 5-FC (Example 3-5, 1 mM 5-FC for 5 days or 8 days, post-infection 5 d to p4): low drug sensitivity

B3: CD7: yeast CD gene optimized by human codon (SEQ. ID. NO: 22) (nucleic acid)
DNA: ATGGTAACTGGTGGCATGGCCTCAAAGTGGGATCAGAAAGGAATGGACATCGCTTACGAGGAGGCCGCACTGGGCTATAAGGAGGGCGGCGTCCCTATAGGCGGTTGCCTGATTAACAATAAAGACGGCTCAGTGCTGGGAAGGGGGCACAACATGAGATTTCAGAAAGGCAGCGCAACTCTGCACGGCGAAATCTCCACTCTGGAGAACTGCGGGCGGCTGGAGGGAAAGGTTTATAAAGATACTACCTTGTATACAACTCTGTCCCCCTGCGATATGTGCACCGGCGCCATCATAATGTACGGAATACCCAGGTGCGTGGTGGGAGAGAACGTGAATTTTAAGTCAAAAGGTGAGAAGTACCTGCAGACTCGCGGCCATGAGGTGGTTGTTGTTGACGATGAAAGGTGCAAGAAGATTATGAAGCAGTTCATTGATGAAAGACCCCAGGACTGGTTTGAGGATATCGGAGAGTAG
modifications: CD7 gene
drug sensitivity against 5-FC [1]: excellent drug sensitivity, compared to yCD gene

B4: CD4: CD gene where 32 sites showing recombination were all mutated (SEQ. ID. NO: 19) (nucleic acid)
DNA: ATGGTGACAGGGGGAATGGCAAGCAAGTGGGATCAGAAGGGTATGGACATTGCCTATGAGGAGGCGGCCTTAGGTTACAAAGAGGGTGGTGTTCCTATTGGCGGATGTCTTATCAATAACAAAGACGGAAGTGTTCTCGGTCGTGGTCACAACATGAGATTTCAAAAGGGATCCGCCACACTACATGGTGAGATCTCCACTTTGGAGAACTGCGGCAGGCTGGAAGGCAAGGTGTACAAAGATACCACTCTGTACACCACCCTGTCTCCATGCGACATGTGTACAGGTGCCATCATCATGTATGGTATTCCACGCTGTGTTGTCGGTGAGAACGTTAATTTCAAAAGTAAGGGCGAGAAATACTTGCAAACCAGGGGCCACGAGGTGGTGGTTGTTGACGATGAGAGGTGTAAAAAGATCATGAAACAATTTATCGATGAAAGACCTCAGGACTGGTTCGAGGACATCGGCGAGTAA
modifications: CD4 gene
drug sensitivity against 5-FC (Example 6-3, spRRVe-P1-CDs/sRRVgp-P1-TK, p1-p4): weak drug sensitivity

B5: CD6: yeast CD gene optimized by human codon (SEQ. ID. NO: 21) (nucleic acid)
DNA: ATGGTTACTGGAGGGATGGCCAGTAAATGGGACCAGAAGGGTATGGATATTGCATACGAGGAGGCCGCTTTGGGATACAAGGAGGGGGGTGTCCCTATAGGCGGTTGCCTGATCAATAATAAAGACGGCTCTGTCTTGGGAAGAGGACACAATATGCGCTTTCAGAAGGGAAGCGCCACCCTGCATGGAGAGATCTCTACCCTCGAAAATTGCGGAAGGCTCGAAGGCAAAGTTTACAAAGATACCACCCTCTACACAACGCTGTCCCCCTGTGATATGTGCACCGGTGCCATTATCATGTATGGCATCCCACGCTGCGTTGTAGGAGAGAATGTAAACTTCAAATCCAAGGGAGAGAAGTATCTCCAGACCCGAGGGCACGAAGTTGTGGTGGTGGACGATGAAAGGTGTAAGAAGATCATGAAGCAGTTCATAGATGAGCGGCCTCAGGACTGGTTCGAGGATATTGGCGAATGA
modifications: CD6 gene
drug sensitivity against 5-FC [1]: excellent drug sensitivity, compared to yCD gene
drug sensitivity against GCV and 5-FC (Example 10-3, spRRVe-P2-CDs (CD6, CD10-CD16)/sRRVgp-P2-TK, p1 to p5, treated 6 or 8 days): most excellent drug sensitivity
